# Source: PMC10821409, “The transport activity of the multidrug ABC transporter BmrA does not require a wide separation of the nucleotide-binding domains” (The Journal of Biological Chemistry, 2023)
# B1: BmrA WT, homodimeric multidrug ABC transporter from Bacillus subtilis (natural protein)
# chain: MPTKKQKSKSKLKPFFALVRRTNPSYGKLAFALALSVVTTLVSLLIPLLTKQLVDGFSMSNLSGTQIGLIALVFFVQAGLSAYATYALNYNGQKIISGLRELLWKKLIKLPVSYFDTNASGETVSRVTNDTMVVKELITTHISGFITGIISVIGSLTILFIMNWKLTLLVLVVVPLAALILVPIGRKMFSISRETQDETARFTGLLNQILPEIRLVKASNAEDVEYGRGKMGISSLFKLGVREAKVQSLVGPLISLVLMAALVAVIGYGGMQVSSGELTAGALVAFILYLFQIIMPMGQITTFFTQLQKSIGATERMIEILAEEEEDTVTGKQIENAHLPIQLDRVSFGYKPDQLILKEVSAVIEAGKVTAIVGPSGGGKTTLFKLLERFYSPTAGTIRLGDEPVDTYSLESWREHIGYVSQESPLMSGTIRENICYGLERDVTDAEIEKAAEMAYALNFIKELPNQFDTEVGERGIMLSGGQRQRIAIARALLRNPSILMLDEATSSLDSQSEKSVQQALEVLMEGRTTIVIAHRLSTVVDADQLLFVEKGEITGRGTHHELMASHGLYRDFAEQQLKMNADLENKAG
# notes: BmrA, multidrug ABC transporter, Bacillus subtilis; hexa histidine-tagged pET23 BmrA; Residues 578 onward could not be modelled in PDB 8QOE; also called WT BmrA; WT protein; source: E. coli C41(DE3), purified in DDM/cholate (Ni-NTA)
# Molecular target: the molecule itself
# Assay: cryo-EM structure; detergent-purified protein (DDM/cholate), apo, inward-facing state; C2 symmetry
protein,measurement,value
B1,binding result,binds
